# Results reported in article doi:10.1101/2023.06.05.543797, “Crystal structure of SUN1-KASH6 reveals an asymmetric LINC complex architecture compatible with nuclear membrane insertion” (bioRxiv, 2023).
# B1: KASH domain of human JAW1/LRMP (amino-acids 515-555) (peptide, UniProt Q12912 515-555, looked up)
# chain: TGQLFQKSVDAAPTQQEDSWTSLEHILWPFTRLRHNGPPPV
# notes: JAW1/LRMP (lymphoid restricted membrane protein), human, KASH domain, amino-acids 515-555; also called KASH6; KASH6 peptide; not shown: His6, N-terminal, cleaved; MBP, N-terminal, cleaved
# Target: the molecule itself
# Experiment: crystal structure; co-expressed and co-purified SUN1-KASH6 complex at 12 mg/ml; sitting drops, 20°C; crystals at pH 6.0 (1.7 Å) and pH 5.5 (2.0 Å and 2.3 Å)
protein,measurement,value
B1,binding result,binds
